Measured values: the supplement of paper PMC9732359
± gives the uncertainty stated by the source.

Assay: protein stability index of a GFP-peptide fusion (yeast GPS) (PSI 1-4); higher = more stable; sorted into four equal gates, so the index is relative within each strain
How it was run: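 Tiled yeast protein peptides of 17 residues were each joined downstream of GFP, on plasmids that also express Cherry. The pooled library was maintained in yeast, and mid-log cultures in leucine-free medium were sorted into four equal gates on the GFP/Cherry ratio. Plasmids from every gate were amplified by PCR and sequenced on Illumina, with barcodes linking reads to strains. The protein stability index of a peptide is its gate-number-weighted read frequency summed over the gates.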

Row | Sequence | protein stability index (doa10∆) | protein stability index (pdr5∆) | protein stability index (san1∆) | protein stability index (ubr1∆)
1 | AKYETSILEHSGIRLIE [FAS2] | 3.32 ± 0.062 | 3.3 ± 0.063 | 3.09 ± 0.051 | 3.37 ± 0.052
2 | ALETENMEIRNLRLKIL [GRR1] | 3.14 ± 0.065 | 2.9 ± 0.043 | 2.82 ± 0.052 | 2.7 ± 0.03
3 | EKFDLERVTALKNCKIS [SMC1] | 3.44 ± 0.2 |  | 3.38 ± 0.11 | 
4 | CPLSQQFCGIKERNSLK [BRR2] | 2.88 ± 0.16 | 3.14 ± 0.1 | 2.71 ± 0.094 | 3.08 ± 0.076
5 | INIAQMSACVGQQSVEG [RPO21] |  |  | 3.22 ± 0.17 | 3.07 ± 0.1
6 | AKNSIIDSSNLPLQAQQ [SWI1] | 2.73 ± 0.069 | 2.94 ± 0.071 | 2.74 ± 0.099 | 2.78 ± 0.042
7 | RIQKIISKRKEELEEEF [YIL149C/MLP2] | 3.13 ± 0.12 | 2.47 ± 0.13 | 3.02 ± 0.18 | 2.86 ± 0.13
8 | RNSLETKLTTCKRELAF [YIL149C/MLP2] | 2.09 ± 0.068 | 1.99 ± 0.077 | 1.88 ± 0.09 | 2.19 ± 0.053
9 | NDFFIIYYTPAFFHLFA [YJL039C/NUP192] | 1.41 ± 0.058 | 1.57 ± 0.043 | 1.62 ± 0.073 | 1.58 ± 0.042
10 | MLSKTKVYYFQGGNNEL [RPL30] | 2.87 ± 0.15 | 3.17 ± 0.26 | 2.99 ± 0.14 | 3.4 ± 0.25
11 | VNLSQEALQYDPQPFLK [SNU114] | 2.99 ± 0.056 | 2.84 ± 0.061 | 2.97 ± 0.044 | 3 ± 0.046
12 | KVDIPLEVVQYIEDGRN [NUT2] | 2.46 ± 0.066 | 1.59 ± 0.065 | 1.34 ± 0.094 | 1.59 ± 0.046
13 | MLKPNIIFQQLLFWTDP [YCG1] | 2.42 ± 0.099 | 2.28 ± 0.076 | 1.21 ± 0.093 | 1.68 ± 0.12
14 | KLTGDDQKFGVPVRSFK [ASC1] | 2.36 ± 0.16 | 3.16 ± 0.12 | 2.77 ± 0.1 | 3 ± 0.1
15 | WRFLQILRNGIDYLQRN [POP1] | 3.05 ± 0.059 | 2.82 ± 0.054 | 2.97 ± 0.052 | 2.72 ± 0.048
16 | YHNLTTHNSYEKACQVL [RPN6] | 3.33 ± 0.071 | 3.11 ± 0.058 | 3.1 ± 0.063 | 2.99 ± 0.037
17 | AATVHTATSSSIILSDK [SSN2] | 2.19 ± 0.043 | 2.29 ± 0.032 | 2.02 ± 0.053 | 2.39 ± 0.041
18 | RPTGGANMATVPSTTNV [MED6] | 2.66 ± 0.062 | 2.93 ± 0.06 | 2.42 ± 0.17 | 2.91 ± 0.04
19 | DKSIDTSSLQLYKFQNF [YML103C/NUP188] | 2.67 ± 0.064 | 3.05 ± 0.086 | 2.7 ± 0.055 | 2.99 ± 0.055
20 | MLAAQDVAAKCKEVGIT [RPS14A] | 2.38 ± 0.057 | 2.38 ± 0.061 | 2.07 ± 0.068 | 2.04 ± 0.041
21 | ILEHTLFKGTGFNSWEG [PRP8] | 2.42 ± 0.12 | 2.41 ± 0.12 | 3.38 ± 0.13 | 1.64 ± 0.039
22 | DDAMEINGEDPANNHQL [SMX2] | 3.38 ± 0.076 | 3.02 ± 0.086 | 3.3 ± 0.047 | 3.44 ± 0.071
23 | QLFHNLISIHSRENNSE [YJL039C/NUP192] | 2.6 ± 0.079 | 2.61 ± 0.076 | 2.3 ± 0.11 | 2.88 ± 0.091
24 | ESLPQYVDFVPMYKELW [POP4] | 2.12 ± 0.061 | 2.45 ± 0.056 | 2.5 ± 0.074 | 2.64 ± 0.048
25 | MKLNILDERFASRVALN [IRR1] | 1.54 ± 0.051 | 2.31 ± 0.062 | 2.17 ± 0.11 | 2.03 ± 0.054
26 | GWKYEDVVAKLEAKRKV [RPL16A] | 2.78 ± 0.082 | 1.88 ± 0.063 | 1.93 ± 0.13 | 1.88 ± 0.046
27 | HNAKNGTLDKNSQTVSG [SNF2] | 1.98 ± 0.13 | 2.42 ± 0.2 | 2.37 ± 0.2 | 2.96 ± 0.16

Row | Sequence | protein stability index (doa10∆) | protein stability index (pdr5∆) | protein stability index (san1∆) | protein stability index (ubr1∆)
28 | EILNIFKHISVKDFTSL [RPO21] | 2.41 ± 0.14 | 2.23 ± 0.12 | 2.14 ± 0.11 | 1.85 ± 0.046
29 | KIPSASIWGNGYSGYGN [SNF5] | 3.25 ± 0.1 | 3.27 ± 0.11 | 3.42 ± 0.095 | 3.3 ± 0.05
30 | SVRLQVTKILPHLIIQN [IRR1] | 1.65 ± 0.091 | 1.7 ± 0.064 | 1.72 ± 0.094 | 1.7 ± 0.06
31 | NKRLDVIDGKLPFMQNA [YDL088C/ASM4] | 2.84 ± 0.053 | 2.79 ± 0.053 | 2.44 ± 0.052 | 2.19 ± 0.044
32 | KNKYGEINSEDYDNKTK [SRP68] | 3.23 ± 0.094 | 2.89 ± 0.16 | 3.43 ± 0.06 | 3.14 ± 0.084
33 | LSLNLGDYGSAKCNSLL [POP5] | 2.47 ± 0.061 | 2.94 ± 0.077 | 2.57 ± 0.081 | 2.46 ± 0.093
34 | ECATCHGNLASCHGHFG [RPO31] | 2.9 ± 0.072 | 3.17 ± 0.12 | 2.92 ± 0.067 | 3.04 ± 0.056
35 | VALTSFLGYKAGMTTIV [RPL3] | 2.96 ± 0.11 | 2.75 ± 0.077 | 2.69 ± 0.078 | 2.85 ± 0.094
36 | PNTKDAMSLYHSPFPFN [PRP8] | 2.64 ± 0.049 | 2.55 ± 0.053 | 2.63 ± 0.06 | 2.71 ± 0.036
37 | YSSIPSLQDSIIKQENF [SSN2] | 2.7 ± 0.13 | 2.99 ± 0.17 | 2.5 ± 0.086 | 2.79 ± 0.14
38 | DRELSVRNACKRLIAHD [YCG1] | 2.59 ± 0.097 | 2.77 ± 0.27 | 2.49 ± 0.26 | 2.67 ± 0.18
39 | GAEVDEARINELLSSLE [RPP2B] | 3.16 ± 0.11 | 3.5 ± 0.11 | 3.22 ± 0.077 | 3.21 ± 0.1
40 | QLGYGKFLILNENPINK [NUT1] | 2.92 ± 0.12 | 2.53 ± 0.12 | 2.71 ± 0.077 | 2.84 ± 0.13
41 | SNNDEDDKDCTIKISTN [RGR1] | 2.94 ± 0.063 | 3.13 ± 0.062 | 2.89 ± 0.054 | 3 ± 0.054
42 | QILSTVVEDKPLLSKKE [SMB1] | 1.15 ± 0.061 | 1.19 ± 0.042 | 1.19 ± 0.12 | 1.48 ± 0.054
43 | NFADKYDEVKKHWGGGI [RPL8A] | 2.66 ± 0.21 | 3.2 ± 0.12 | 2.97 ± 0.099 | 3.05 ± 0.14
44 | FTLTYDIIETFSSKRKT [YMR129W/POM152] | 1.88 ± 0.05 | 2.07 ± 0.064 | 1.69 ± 0.077 | 2.33 ± 0.056
45 | FAQPVADIENSTSGDPS [SSN2] |  | 3.14 ± 0.23 | 2.9 ± 0.16 | 2.75 ± 0.24
46 | QGSVRRLTVSARDAPTK [QCR2] | 2.93 ± 0.12 | 3.16 ± 0.076 | 2.92 ± 0.086 | 3.14 ± 0.061
47 | LYFPDDYPFTQLGYIEN [POP1] | 2.71 ± 0.12 | 3.18 ± 0.074 | 3.1 ± 0.071 | 3.16 ± 0.068
48 | SSTGGGLFGNKPALGSL [YGR119C/NUP57] | 3.33 ± 0.1 | 3.44 ± 0.088 | 3.4 ± 0.048 | 3.41 ± 0.056
49 | QKSGRPVKSIRARLKGK [RPO21] | 2.17 ± 0.12 | 2.23 ± 0.12 | 2.34 ± 0.2 | 1.77 ± 0.24
50 | AVKYGLNHVVALIENKK [RPL8A] | 2.26 ± 0.19 | 2.48 ± 0.12 |  | 2.45 ± 0.067
51 | YRAFGSIWQVKDQLPDL [MED7] | 3.08 ± 0.13 | 3.17 ± 0.086 | 2.94 ± 0.09 | 3.29 ± 0.083
52 | ILPDSLNLDSLLVDQKQ [SMD1] | 3.29 ± 0.098 | 3.01 ± 0.085 | 3.21 ± 0.074 | 3.09 ± 0.06
53 | LRLTRINSGTFVKVTKA [RPL7A] | 1.89 ± 0.1 |  | 1.43 ± 0.28 | 
